Results taken from article PMC12375970, “Probing the extent of importin‐α targeting of the TAF8 NLS by eliminating its cationic net‐charge” (Protein Science : A Publication of the Protein Society, 2025).
Read-outs that look alike come from different tables or passages of the source.

Tests used:
importin-beta = importin-beta (UniProt Q14974); details: cited from earlier work
[1] = molecular target: importin-alpha (Homo sapiens) (UniProt P52292); details: cited from earlier work
[2] = molecular target: mouse importin‐α paralog 2 (mImpα2) lacking the importin‐β‐binding (IBB) domain, residues 70–529 (mouse) (UniProt P52293); assay: MST; Monolith NT.115; RED‐NHS‐labelled mImpα2 at 60 nM titrated against NLS peptide 250 μM–7.6 nM; 20 mM Tris–HCl, 127 mM NaCl, pH 8.0, 0.5% Tween‐20; one‐binding site and two‐binding site model fits; apparent
[3] = molecular target: importin-alpha (Homo sapiens) (UniProt P52292); assay: ITC; details: cited from earlier work
[4] = molecular target: murine importin-α isoform 2 (mImpα2) lacking the importin-β-binding (IBB) domain (mouse) (UniProt P52293); assay: MST; Monolith NT.115; RED-NHS-labelled mImpα2 at 60 nM titrated against a serial 1:1 dilution (250 µM-7.6 nM) of NLS peptide with 0.5% Tween-20; 20 mM Tris-HCl, 127 mM NaCl, pH 8.0; three repeats, mean ± SD; fitted with one-binding-site, two-binding-site and Hill models; apparent affinity

Chain of importin-beta (Q14974 whole entry): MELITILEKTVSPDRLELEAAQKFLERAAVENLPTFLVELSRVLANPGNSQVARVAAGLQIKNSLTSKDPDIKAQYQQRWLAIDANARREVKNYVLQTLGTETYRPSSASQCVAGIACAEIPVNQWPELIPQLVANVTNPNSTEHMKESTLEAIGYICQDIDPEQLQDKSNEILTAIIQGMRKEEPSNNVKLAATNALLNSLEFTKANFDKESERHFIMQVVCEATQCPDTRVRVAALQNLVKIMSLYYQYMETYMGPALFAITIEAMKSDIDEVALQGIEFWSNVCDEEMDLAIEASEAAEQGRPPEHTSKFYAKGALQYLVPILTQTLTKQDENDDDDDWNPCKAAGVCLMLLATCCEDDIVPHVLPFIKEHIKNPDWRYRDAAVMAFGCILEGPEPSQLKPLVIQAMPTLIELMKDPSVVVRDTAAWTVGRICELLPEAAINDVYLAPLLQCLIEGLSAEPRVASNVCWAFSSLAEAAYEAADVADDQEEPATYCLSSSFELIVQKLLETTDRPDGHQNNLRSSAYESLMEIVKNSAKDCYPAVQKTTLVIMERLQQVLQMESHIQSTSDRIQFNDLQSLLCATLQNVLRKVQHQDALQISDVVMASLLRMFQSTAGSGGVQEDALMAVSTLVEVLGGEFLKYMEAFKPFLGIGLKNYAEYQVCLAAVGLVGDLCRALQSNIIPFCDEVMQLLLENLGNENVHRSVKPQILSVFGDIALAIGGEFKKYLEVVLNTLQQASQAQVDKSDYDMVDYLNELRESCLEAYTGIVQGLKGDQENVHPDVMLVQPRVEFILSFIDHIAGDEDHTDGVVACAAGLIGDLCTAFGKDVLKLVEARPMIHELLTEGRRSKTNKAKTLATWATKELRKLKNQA

Question: Which Kd (importin-beta) does the source give for “importin-alpha IBB domain IBB (from UniProt P52292)” here?
Answer: 0.01 µM

Question: What about the Kd [1] of the same substance?
Answer: 14 µM

Question: Which KD1 (site 1, two‐binding site model) [2] does the source give for “TAF8 NLS peptide (TAF8 residues 297–305, …)” here?
Answer: 1 µM

Question: What about the KD2 (site 2, two‐binding site model) [2] of the same substance?
Answer: 1 µM

Question: With TAF8 NLS 297-310 (from UniProt Q7Z7C8) as the substance, how does the Kd [3] read?
Answer: 10.4 µM

Question: Which Kd [4] does the source give for TAF8 NLS peptide (…, residues 297-305) here?
Answer: 1.21 µM
